These results are taken from patent US20230073007A1, “SWITCHING BINDER, PREPARATION METHOD THEREFOR, AND PHARMACEUTICAL COMPOSITION, ASSAY KIT, AND ANTIGEN AND ANTIBODY ASSAY METHOD, EACH USING SAME” (OPTOLANE TECHNOLOGIES INC., priority 2019, published 2023).

The assay concerns the target anti-HRP antibody. Kind of assay: release of labelled peptide L1 from anti-HRP antibody in solution, HRP concentration varied; released peptide separated and read by fluorescence.

For the substance “HRP (from UniProt P00433 31-338) (enzyme)”, the EC50 (read off the curve) was found to be 0.9 µM.
